Assay results reported in patent publication EP4736886A1, “METHOD FOR PREPARING ANTIBODY-SMALL MOLECULE DRUG CONJUGATE AND USE THEREOF” (priority 2023, dated 2025).

B1: Mutant 37-DXd (conjugate)
heavy: QVQLVESGGGLVQPGGSLRLSCAASGITFPVNAYGWYRQAPGKQRDLVAIISAGGTTNYADSVKGRFTISRDNSKNTLYLQMNSLRAEDTAVYYCYLQRRIGMLRDYWGQGTQVTVSSERKCDDCVECPPCPERKCCVECPPCPAPPVAGPSVFLFPPKPKDTLMISRTPEVTCVVVDVSHEDPEVQFNWYVDGVEVHNAKTKPREEQFNSTFRVVSVLTVVHQDWLNGKEYKCKVSNKGLPAPIEKTISKTKGQPREPQVYTLPPSREEMTKNQVSLTCLVKGFYPSDIAVEWESNGQPENNYKTTPPMLDSDGSFFLYSKLTVDKSRWQQGNVFSCSVMHEALHNHYTQKSLSLSPGK
B2: Mutant 38-DXd (conjugate)
heavy: QVQLVESGGGLVQPGGSLRLSCAASGITFPVNAYGWYRQAPGKQRDLVAIISAGGTTNYADSVKGRFTISRDNSKNTLYLQMNSLRAEDTAVYYCYLQRRIGMLRDYWGQGTQVTVSSERKCEECVECPPCPERKCCVECPPCPAPPVAGPSVFLFPPKPKDTLMISRTPEVTCVVVDVSHEDPEVQFNWYVDGVEVHNAKTKPREEQFNSTFRVVSVLTVVHQDWLNGKEYKCKVSNKGLPAPIEKTISKTKGQPREPQVYTLPPSREEMTKNQVSLTCLVKGFYPSDIAVEWESNGQPENNYKTTPPMLDSDGSFFLYSKLTVDKSRWQQGNVFSCSVMHEALHNHYTQKSLSLSPGK

Tests used:
[1] = Size-exclusion chromatography analysis of aggregate formation; type: physicochemical; conditions: DXd conjugates, FIG. 7 and FIG. 9
Description: Size-exclusion chromatography analysis was performed. […]
Based on Antibody 3 and Antibody 4, amino acid residues with different properties were inserted between the cysteine residues at positions 4 and 5. Specifically: nonpolar amino acids, exemplified by the insertion of two alanine residues (A); polar uncharged amino acids, exemplified by the insertion of two serine residues (S); basic amino acids, exemplified by the insertion of two lysine residues (K); and acidic amino acids, exemplified by the insertion of two glutamic acid residues (E) or two aspartic acid residues (D), as shown in Table 5. The different mutants were expressed and purified. […]
The different mutants listed in Table 6 were expressed and purified. […] The thermal stability of these ten heavy-chain antibodies was further evaluated using dynamic light scattering (DLS). A DLS (Wyatt) instrument was used to monitor light scattering of the antibodies during heating from 25 °C to 85 °C, thereby determining the aggregation temperature (Tagg) of the antibodies.
VHH1 was separately linked to the engineered human IgG2 Fc or the engineered human IgG4 Fc shown in Table 7 to construct heavy-chain antibodies. After expression and purification, Mutant 37, Mutant 38, Mutant 39, and Mutant 40 were obtained.

OVCAR-3 cells = test: Cell killing assay, cell viability by CellTiter-Glo; type: cell-based, human; conditions: 5 days at 37°C; compared to Antibody 1-DXd, FIG. 11
Description: OVCAR-3 cells were seeded into a 96-well plate at a density of 5,000 cells per well and cultured overnight at 37°C. Antibody 1-DXd, Mutant 22-DXd, Mutant 23-DXd, Mutant 37-DXd, Mutant 38-DXd, Mutant 39-DXd, and Mutant 40-DXd were serially diluted and added to the 96-well plate containing OVCAR-3 cells, followed by incubation at 37°C for 5 days. Cell viability was measured using CellTiter-Glo (Promega) to evaluate the killing effects of the antibody-drug conjugates.

[2] = Hydrophobic interaction chromatography and LC-MS analysis of drug loading; type: physicochemical; conditions: after TCEP reduction and conjugation with maleimide-GGFG-DXd
Description: Antibody 1 and Antibody 2 were separately incubated with TCEP (Sigma) to reduce and open the disulfide bonds between the two heavy chains, followed by the addition of maleimide-GGFG-DXd (MedChemExpress) for conjugation. The conjugates were then purified using a desalting column to remove excess small-molecule drug.

Row | Molecule | size-exclusion chromatography peak profile after conjugation [1] | killing effect on OVCAR-3 cells (OVCAR-3 cells) | drug-to-antibody ratio (DAR) value [2]
1 | B1 | normal | significantly enhanced killing effect | 8
2 | B2 | normal | significantly enhanced killing effect | 8
